The numbers were not newly measured in PMC2935699, which cites them from elsewhere.

As usually defined, the Ki is a measure of affinity in units of concentration, obtained from inhibition or displacement.

Among the targets are Galanin receptor 3 (UniProt O60755); Galanin receptor 2 (UniProt O43603); Galanin receptor 1 (UniProt P47211).
UniProt P47211, sequence (P47211 whole entry): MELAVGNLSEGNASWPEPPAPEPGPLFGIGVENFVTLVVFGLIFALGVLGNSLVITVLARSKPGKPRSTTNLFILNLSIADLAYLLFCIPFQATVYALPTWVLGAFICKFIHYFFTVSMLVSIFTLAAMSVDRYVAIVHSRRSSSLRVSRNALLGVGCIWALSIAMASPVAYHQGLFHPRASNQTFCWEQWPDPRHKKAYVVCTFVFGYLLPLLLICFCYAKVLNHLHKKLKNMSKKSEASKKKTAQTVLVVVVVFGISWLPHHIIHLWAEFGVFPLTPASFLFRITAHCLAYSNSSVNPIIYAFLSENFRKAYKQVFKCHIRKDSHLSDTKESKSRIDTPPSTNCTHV
UniProt O60755, sequence (O60755 whole entry): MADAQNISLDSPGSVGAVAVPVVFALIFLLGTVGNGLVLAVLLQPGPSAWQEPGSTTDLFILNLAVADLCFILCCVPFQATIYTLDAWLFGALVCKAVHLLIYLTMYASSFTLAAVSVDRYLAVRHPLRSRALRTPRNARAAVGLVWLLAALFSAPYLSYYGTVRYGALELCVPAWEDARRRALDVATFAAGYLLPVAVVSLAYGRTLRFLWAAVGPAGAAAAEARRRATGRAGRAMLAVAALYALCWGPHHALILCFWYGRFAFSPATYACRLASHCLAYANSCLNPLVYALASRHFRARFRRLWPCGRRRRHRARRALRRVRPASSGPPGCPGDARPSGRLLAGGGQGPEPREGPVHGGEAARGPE
UniProt O43603, sequence (O43603 whole entry): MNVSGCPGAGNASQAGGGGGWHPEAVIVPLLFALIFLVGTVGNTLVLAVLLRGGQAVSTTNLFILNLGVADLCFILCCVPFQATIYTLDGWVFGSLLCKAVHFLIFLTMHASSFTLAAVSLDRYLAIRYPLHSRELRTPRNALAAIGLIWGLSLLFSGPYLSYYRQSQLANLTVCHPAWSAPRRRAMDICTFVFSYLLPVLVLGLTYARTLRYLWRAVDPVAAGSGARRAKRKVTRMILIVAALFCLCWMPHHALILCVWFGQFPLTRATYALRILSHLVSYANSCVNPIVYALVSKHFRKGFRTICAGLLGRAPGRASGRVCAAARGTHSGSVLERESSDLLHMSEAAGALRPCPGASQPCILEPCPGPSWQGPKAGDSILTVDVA

Galanin 1-16 1-16 (from UniProt P22466): the Ki in the series with Galanin receptor 3 is 49.6 nM; with Galanin receptor 2, 5.66 nM; with Galanin receptor 1, 4.8 nM.
